# FireProtDB (doi:10.1002/prot.340220405)
# B1: Chemotaxis protein CheY wild type, P0AE67 (protein)
# chain: MADKELKFLVVDDFSTMRRIVRNLLKELGFNNVEEAEDGVDALNKLQAGGYGFVISDWNMPNMDGLELLKTIRADGAMSALPVLMVTAEAKKENIIAAAQAGASGYVVKPFTAATLEEKLNKIFEKLGM
# Settings: Escherichia coli (strain K12); pH 8; 25 °C; Urea; CD; Na-PIPES 50 mM; reversible: yes; whole UniProt chain shown
protein,measurement,value
B1,denaturant m value,1.6 kcal/mol/M
same,denaturant midpoint (higher = more stable),3.5 M
same,unfolding free energy,5.6 kcal/mol
